Experiments:
Experiment in all cases: ELISA
MERS-CoV S2 subdomain = MERS-CoV S2 subdomain (MERS-CoV, strain ; stand-in …, UniProt K0BRG7)
HCoV-OC43 S-2P = HCoV-OC43 S-2P (HCoV-OC43 (strain ; numbering …, UniProt P36334, stabilised)
[1] = biological target: SARS-CoV-2 S2 subdomain (Sino Biological) (SARS-CoV-2 (Wuhan-Hu-1 reference), UniProt P0DTC2)

Measured: binding result

B1: antibody 54043-5 (IgG) (antibody, V domains shown)
VH: QVQLQESGPGLVKPSQTLSLTCTVSGDSISNSSYYWSWIRQYPSRRLEWIGYIYYNGRTYYNPSLNSRLSISLDTSKNHFSLKLSSLTAADTALYYCARGFLGYCAGGSCFLNWLDPWGQGTLVTVSS
VL: EIIMTQSPATLSVSPGGRATLSCRASQSVSNNLAWYQQKPGQTPRLLIHGASTRATGIPARFSGSGSGTEFTLTISSLQSEDFAVYYCHQYHNWLLTFGGGTKVEIK
binds: all assays above
